From patent US20260049141A1 (OSE IMMUNOTHERAPEUTICS, published 2026)
Values belong to the binder of their own block, whether it stands above or below them.

How the values were obtained:
[1] = biological target: T1, Recombinant human CD28 (bio-techne, reference 342-CD-200) (human, UniProt P10747 19-152); assay: SPR (Biacore T200), hCD28 immobilized on CM5, antibody flowed at 0-3000 nM, bivalent model fit
T1 construct: Bought protein; also called hCD28 recombinant protein; human recombinant CD28 protein
Protocol: (§1) hCD28 recombinant protein (bio-techne, reference 342-CD-200) was immobilized to the CM5 sensorship at 20 ug/mL in Na Acetate pH5 in the Biacore T200. […] The antigen-antibody association kinetics was followed for 2 minutes, and the dissociation kinetics was followed for 10 minutes. The association and dissociation curves were fit to a bivalent model.

[2] = biological target: Human CD28 expressed on Jurkat T cells (human, UniProt P10747 19-220); assay: cell-based or functional assay
[3] = biological target: T1, Recombinant human CD28 (bio-techne, …); assay: SPR (Biacore T200), hCD28 immobilized on CM5, antibody flowed; monovalent anti-CD28 scFv (Format B1), not the bivalent anti-CD28 antibody
Protocol: as §1

[4] = biological target: T2, Biotinylated human PD-1 (AcroBiosystems, reference EP-101) (human, UniProt Q15116 25-167, biotinylated); assay: competitive ELISA: recombinant human PD-L1 immobilized, antibody mixed with a fixed concentration of biotinylated human PD-1, streptavidin-peroxidase; blocked ligand PD-L1
T2 construct: Kit reagent; called both biotinylated Human PD1 and Biotin-PD-1Fc; also called Biotin-PD-1Fc; not described
T2 sequence (Q15116 25-167): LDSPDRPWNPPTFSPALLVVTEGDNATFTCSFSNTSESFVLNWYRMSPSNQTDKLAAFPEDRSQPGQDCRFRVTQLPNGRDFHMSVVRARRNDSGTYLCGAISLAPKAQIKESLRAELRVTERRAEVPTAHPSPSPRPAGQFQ
Protocol: (A) PD-1 binding ELISA assay. […] Revelation was performed using an anti-human Fc antibody coupled to peroxidase. Colorimetry was determined at 450 nm using TMB substrate. Data were normalized by the condition anti-PD-1*2 or anti-PD-1*1 at 20 nM; considered as 100% of binding for bivalent and monovalent figure respectively. N=2 independent experiments per condition. (B) Antagonist PD-1/PDL1 ELISA assay. […] Revelation was performed with a streptavidin coupled to peroxidase. Colorimetry was determined at 450 nm using TMB substrate. Percentage of antagonist activity was determined by the formula 100-((DO450 nM*100)/DO450 nM No Ab). N=2 independent experiments. (C) CD28 binding MSD assay. […] Revelation was performed with an anti-human Fc antibody coupled to SulfoTag. Electric signal was determined using MSD system. (D) Cis-activity Jurkat T cell-based bioassay. […] IL-2 secretion was quantified in the culture supernatant after 48 hours of stimulation and data were normalized by the condition without antibody. N=2-7 independent experiments.

B1: anti-CD28 bivalent clone 1 antibody with no anti-PD-1 valency (antibody, V domains shown)
VH: QVKLQESGPGLVAPSQSLSITCTVSGFSLTSYGVYWVRQPPGKGLEWLGVIWAGGSTNYNSALMSRLSISKDNSKSQVFLKMNSLQTDDTAMYYCARDHYGSYGDYYAMDYWGQGTTVTVSS
VL: DIVLTQSPASLAVSLGQRATISCRASESVEYYDTSLMQWYQQKPGQPPKLLIYAASSVESGVPARFSGSGSGTDFSLNIHPVEEDDIAMYFCQQSRKVPWTFGGGTKLEIK
notes: also called bivalent anti-CD28 antibody; Bivalent anti-CD28 (positive control)
Kd [1]: 75 nM | koff [1]: 0.000842 s⁻¹ | kon [1]: 11200 M⁻¹ s⁻¹

B2: Format B1 anti-PD-1*1/anti-CD28*1 scFv clone 2 (bispecific antibody)
chain 1: not shown
chain 2: PAPELLGGPSVFLFPPKPKDTLMISRTPEVTCVVVDVSHEDPEVKFNWYVDGVEVHNAKTKPREEQYASTYRVVSVLTVLHQDWLNGKEYKCKVSNKALPAPIEKTISKAKGQPREPQVYTLPPCRDELTKNQVSLWCLVKGFYPSDIAVEWESNGQPENNYKTTPPVLDSDGSFFLYSKLTVDKSRWQQGNVFSCSVMHEALHNHYTQKSLSLSPGK
VL: DVVMTQSPLSLPVTLGQPASISCRSSQSLVHANTNTYLEWYQQRPGQSPRLLIYKVSNRFSGVPDRFSGSGSGTDFTLKISRVEAEDVGVYYCFQGTHVPNTFGQGTKLEIK
IL-2 secretion by PD-1 negative Jurkat T cells (cis-activity bioassay, 100 nM), fold versus no antibody [2]: 4 fold

B3: Anti PD-1*1/anti CD28*1 scFv Format B1 (anti-PD-1 clone 1 / anti-CD28 clone 1) (bispecific antibody, V domains shown)
VH 1: QIQLVQSGSELKKPGASVKVSCKASGYTFTHYAMNWVRQAPGQGLEWMGWINTNTGEPTYAQGFTGRFVFSLDTSVSTAYLQISSLKAEDTAVYYCAREREPGMDNWGQGTLVTVSS
VL 1: B2 VL
VH 2: B1 VH
VL 2: B1 VL
notes: Only the variable domains are tied to the molecule by name; also called anti PD-1/anti CD28 (Format B1); anti-PD-1*1/anti-CD28*1 scFv clone 1
Kd [1]: 5400 nM | koff [1]: 0.0249 s⁻¹ | kon [1]: 4620 M⁻¹ s⁻¹ | Kd [3]: ~5000 nM | IC50 (read off the curve) [4]: ~1 nM

B8: Format B1 anti-PD-1*1/anti-CD28*1 scFv clone 3 (bispecific antibody)
chain 1: not shown
chain 2: B2 chain 2
VL: B2 VL
IL-2 secretion by PD-1 negative Jurkat T cells (cis-activity bioassay, 100 nM), fold versus no antibody [2]: 2 fold

Continued, values first:

IC50 (read off the curve) [4]: ~1 nM
B4: anti-PD-1/anti-CD28 multifunctional molecule Format C1 (bivalent anti-PD-1 antibody fused to an anti-CD28 scFv, clone 1) (bispecific antibody, V domains shown)
VH 1: B3 VH 1
VL 1: B2 VL
VH 2: B1 VH
VL 2: B1 VL
notes: Full chains not tied to the label in the text

IC50 (read off the curve) [4]: ~0.3 nM
B5: anti-PD-1/anti-CD28 multifunctional molecule Format C5 (scFv anti-CD28 fused to C-terminal of bivalent anti-PD1, clone 1) (bispecific antibody, V domains shown)
VH 1: B3 VH 1
VL 1: B2 VL
VH 2: B1 VH
VL 2: B1 VL

IC50 (read off the curve) [4]: ~2 nM
B6: anti-PD-1/anti-CD28 multifunctional molecule Format C2 (bivalent anti-PD-1 antibody fused to an anti-CD28 scFv, clone 1) (bispecific antibody, V domains shown)
VH 1: B3 VH 1
VL 1: B2 VL
VH 2: B1 VH
VL 2: B1 VL
notes: See Format C1; full chains not tied to the label in the text

IC50 (read off the curve) [4]: ~1 nM
B7: anti-PD-1/anti-CD28 multifunctional molecule Format B3 (scFv anti-CD28 fused to C-terminal of monovalent anti-PD1, clone 1) (bispecific antibody, V domains shown)
VH 1: B3 VH 1
VL 1: B2 VL
VH 2: B1 VH
VL 2: B1 VL
